Assay results: EP1832653A1 (INSTITUTE OF VIROLOGY, dated 2007)

B1: oligopeptide … (aa 75-98) [SEQ ID NO: 106] (peptide)
peptide: EDPPGEEDLPGEEDLPGEEDLPEV
notes: Synthetic; cysteine added onto the C-end; C-terminal acid
B2: phage-displayed heptapeptide of SEQ ID NO: 137 (without the added alanines), Ph.D.-7 library (peptide)
peptide: KKMKRRK
notes: Residues 2-8 follow from 'after adding alanine on both sides'

Experiments:
[1] = target: T1, monoclonal antibody M75 (MAb M75), secreted from the hybridoma VU-M75, ATCC HB 11128; experiment: competition ELISA: peptide in solution against immobilized GST-MN for M75
T1 construct: also called MAb 75

[2] = target: B1; experiment: phage display panning, 5 cycles, on immobilized peptide SEQ ID NO: 106

Row | Binder | IC50 [1] [ng/mL] | binding result [2]
1 | B1 | 1 | 
2 | ITFNAQY [phage-displayed heptapeptide of SEQ ID NO: 138 (without the added alanines), Ph.D.-7 library] |  | binds
3 | B2 |  | binds
4 | SASAPVS [phage-displayed heptapeptide of SEQ ID NO: 139 (without the added alanines), Ph.D.-7 library] |  | binds
